Consider five molecules from patent US20050042664A1 (AstraZeneca / MedImmune, published 2005).

The Kd is the equilibrium constant for the complex coming apart. A lower Kd goes with tighter binding. One may read the koff as the first-order rate constant of dissociation. The low end stands for a long-lived complex, the high end for a short-lived complex. Usually kon stands for the rate constant with which the complex forms. Higher therefore signals faster complex formation.

The test deals with T1, human EphA2 (human, UniProt P29317 24-534, limits assumed).
T1 construct: Target of the BIAcore analysis as named in the text
T1 sequence (P29317 24-534 limits assumed): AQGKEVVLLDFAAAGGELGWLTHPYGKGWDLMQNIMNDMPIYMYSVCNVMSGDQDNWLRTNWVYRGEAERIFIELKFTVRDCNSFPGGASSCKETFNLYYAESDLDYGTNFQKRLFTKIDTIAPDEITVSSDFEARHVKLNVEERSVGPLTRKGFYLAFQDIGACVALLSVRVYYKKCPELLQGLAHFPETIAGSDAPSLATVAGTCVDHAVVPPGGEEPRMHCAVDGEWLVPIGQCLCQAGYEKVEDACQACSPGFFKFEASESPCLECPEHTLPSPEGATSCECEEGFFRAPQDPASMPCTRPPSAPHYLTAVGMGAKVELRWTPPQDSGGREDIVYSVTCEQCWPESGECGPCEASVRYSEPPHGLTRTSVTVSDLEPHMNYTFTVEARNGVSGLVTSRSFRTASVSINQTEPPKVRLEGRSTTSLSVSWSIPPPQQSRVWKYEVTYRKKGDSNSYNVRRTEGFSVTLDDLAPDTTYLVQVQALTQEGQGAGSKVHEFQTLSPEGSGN
The test can be described thus: BIAcore; format not stated.

B1: Humanized version I of EP101 (hu IgG1) (antibody, V domains shown)
VH: QMQLVQSGPEVKKPGTSVKVSCKASGFTFTDYSMNWVRQARGQRLEWLGFIRNKANDYTTEYSASVKGRVTITRDMSTSTAYMELSSLRSEDTAVYYCARYPRYHAMDSWGQGTSVTVSS
VL: DIVMTQSPSSLSASVGDRVTIICRASQSISNNLHWYQQKPGKAPKLLIKYVFQSISGVPSRFSGSGSGTDFTFTISSLQPEDFATYYCQQSNSWPLTFGGGTKVEIK
For the molecule B1, the dissociation constant Kd was 0.7 nM, the koff was 3.76e-05 s⁻¹ and the kon was determined as 53200 M⁻¹ s⁻¹.

B2: Humanized version III of EP101 (hu IgG1) (antibody, V domains shown)
VH: QMQLVQSGPEVKKPGTSVKVSCKASGFTFTDYSMNWVRQARGQRLEWIGFIRNKANDYTTEYSASVKGRVTITRDMSTSTAYMELSSLRSEDTAVYYCARYPRYHAMDSWGQGTSVTVSS
VL: DIVMTQSPSSLSASVGDRVTIICRASQSISNNLHWYQQKPGKAPKLLIKYVFQSISGVPSRFSGSGSGTDFTFTISSLQPEDFATYYCQQSNSWPLTFGGGTKVEIK
B2 displayed a Kd of 1.3 nM, an off-rate (koff) of 7.62e-05 s⁻¹ and a kon of 60000 M⁻¹ s⁻¹.

B3: Humanized version II of EP101 (hu IgG1) (antibody, V domains shown)
VH: QMQLVQSGPEVKKPGTSVKVSCKASGFTFTDYSMNWVRQARGQRLEWIGFIRNKANDYTTEYSASVKGRVTITRDMSTSTAYMELSSLRSEDTAVYYCARYPRYHAMDSWGQGTSVTVSS
VL: DIQMTQSPSSLSASVGDRVTITCRASQSISNNLHWYQQKPGKAPKLLIKYVFQSISGVPSRFSGSGSGTDFTFTISSLQPEDFATYYCQQSNSWPLTFGGGTKVEIK
For the molecule B3, the Kd was found to be 1.2 nM, the koff amounted to 4.13e-05 s⁻¹ and the kon is 35600 M⁻¹ s⁻¹.

B4: Mouse version of EP101 (mouse IgG) (antibody, V domains shown)
VH: EVKLVESGGGLVQPGGSLSLSCAASGFTFTDYSMNWVRQPPGKALEWLGFIRNKANDYTTEYSASVKGRFTISRDNSQSILYLQMNALRAEDSATYYCVRYPRYHAMDSWGQGTSVTVSS
VL: DIVLTQSPATLSVTPGDSVNLSCRASQSISNNLHWYQQKSHESPRLLIKYVFQSISGIPSRFSGSGSGTDFTLSINSVETEDFGMYFCQQSNSWPLTFGAGTKLELK
notes: Mouse IgG; also called anti-human EphA2 monoclonal antibody EP101; parental murine antibody
Regarding B4, the dissociation constant (Kd) came out at 0.3 nM, the koff turned out to be 0.000101 s⁻¹ and the kon stood at 330000 M⁻¹ s⁻¹.

B5: Chimaeric version of EP101 (hu IgG1) (antibody, V domains shown)
VH: EVKLVESGGGLVQPGGSLSLSCAASGFTFTDYSMNWVRQPPGKALEWLGFIRNKANDYTTEYSASVKGRFTISRDNSQSILYLQMNALRAEDSATYYCVRYPRYHAMDSWGQGTSVTVSS
VL: DIVLTQSPATLSVTPGDSVNLSCRASQSISNNLHWYQQKSHESPRLLIKYVFQSISGIPSRFSGSGSGTDFTLSINSVETEDFGMYFCQQSNSWPLTFGAGTKLELK
notes: Chimeric Fab cloned and expressed as a full length human IgG1; also called chimeric version of anti-EphA2 antibody
Molecule B5 yielded a Kd of 0.3 nM, an off-rate (koff) of 8.04e-05 s⁻¹ and a kon of 242000 M⁻¹ s⁻¹.
